Earlier results as cited in article PMC4257090.
Where two headings read alike, the source gives them in different places.

What was measured:
[1] = molecular target: SecA (membrane-bound) (Escherichia coli) (UniProt P10408)
[2] = molecular target: SecA (soluble) (Escherichia coli) (UniProt P10408)
[3] = molecular target: SecA (membrane-bound) (Escherichia coli) (UniProt P10408); remark: listed apart in the source

In the case of SecB (from UniProt P0AG86), the Kd [1] is given as 0.01 µM, the Kd [2] is given as 1.5 µM and the Kd [3] is given as 0.03 µM.
